Experimental data taken from patent US20260217833A1 (APTEVO RESEARCH AND DEVELOPMENT, published 2026).

Key:
[1] = target: T1, human CD40 full-length (human, UniProt P25942 21-277); assay: flow cytometry, CHOK1SV/human CD40 cells
T1 construct: Also used for CD40 of Daudi cells, of CD40-expressing HEK293 cells and of the BPS CD40/NFkB HEK293 reporter cells where the row says so; also called CD4001012; CHOK1SV/CD40

[2] = target: T2, Human PD-L1 full-length (human, UniProt Q9NZQ7 19-290); assay: flow cytometry, CHOK1SV/human PD-L1 cells
T2 construct: also called PDL01021; CHOK1SV/huPDL1
T2 sequence (Q9NZQ7 19-290): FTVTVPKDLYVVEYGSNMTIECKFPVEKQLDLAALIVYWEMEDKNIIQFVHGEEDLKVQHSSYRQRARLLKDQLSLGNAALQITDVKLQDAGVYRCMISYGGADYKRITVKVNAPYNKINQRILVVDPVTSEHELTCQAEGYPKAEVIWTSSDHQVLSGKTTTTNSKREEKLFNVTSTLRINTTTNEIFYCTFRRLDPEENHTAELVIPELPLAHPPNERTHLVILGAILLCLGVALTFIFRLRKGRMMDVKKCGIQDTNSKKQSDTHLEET

T1 sequence (P25942 21-277): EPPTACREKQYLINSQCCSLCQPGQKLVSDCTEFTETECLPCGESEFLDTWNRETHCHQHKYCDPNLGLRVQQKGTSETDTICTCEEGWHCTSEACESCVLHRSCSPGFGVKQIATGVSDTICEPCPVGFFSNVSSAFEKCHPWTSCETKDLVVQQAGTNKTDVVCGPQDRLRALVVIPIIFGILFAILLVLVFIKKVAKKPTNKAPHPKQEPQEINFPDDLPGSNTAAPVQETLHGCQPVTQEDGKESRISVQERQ

Binder | binding result [1] | binding result [2]
CD4001205 (Fc fusion, humanized 1D5 variant; not shown: wildtype human IgG1 Fc and its linker to the scFv) scFv: DIQMTQSPSSVSASVGDRVTITCRSSQSLLFSVNQKNYLAWYQQKPGKAPKLLIYWASTRESGVPDRFSGSGSGTDFTLTISSLQPEDFATYYCQHYYSYPWTFGQGTKVEIKGGGGSGGGGSGGGGSGGGGSQVQLVQSGAEVKKPGSSVKVSCKASGYTFSTSWISWVRQAPGQGLEWMGGILPGSGSTNYNEKFKGKVTITADESTSTAYMELSSLRSEDTAVYYCARGDDGSYVRWYFDHWGQGTLVTVSS | binds | 
CD4001206 (Fc fusion, humanized 1D5 variant; not shown: wildtype human IgG1 Fc and its linker to the scFv) scFv: DIQMTQSPSSVSASVGDRVTITCRSSQSLLFSVNQKNYLAWYQQKPGKAPKLLIYWASTRESGVPDRFSGSGSGTDFTLTISSLQPEDFATYYCQHYYSYPWTFGQGTKVEIKGGGGSGGGGSGGGGSGGGGSQVQLVQSGAEVKKPGSSVKVSCKASGYTFSTSWIEWIRQAPGQGLEWMGSILPGSGSTNYAQKFQGRVTITADTSTSTAYMELSSLRSEDTAVYYCARGDDGSYVRWYFDHWGQGTLVTVSS | binds | 
CD4001207 (Fc fusion, humanized 1D5 variant; not shown: wildtype human IgG1 Fc and its linker to the scFv) scFv: DIQMTQSPSSVSASVGDRVTITCRSSQSLLFSVNQKNYLAWYQQKPGKAPKLLIYWASTRESGVPDRFSGSGSGTDFTLTISSLQPEDFATYYCQHYYSYPWTFGQGTKVEIKGGGGSGGGGSGGGGSGGGGSQVQLVQSGAEVKKPGSSVKVSCKASGYTFSTSWIEWIRQAPGQGLEWMGSILPGSGSTNYAEKFKGKVTITADESTSTAYMELSSLRSEDTAVYYCARGDDGSYVRWYFDHWGQGTLVTVSS | binds | 
CD4001047 (bispecific antibody, also called CD40_2H7 x hFc x PDL_5F9) scFv-Fc-scFv chain: DIVMTQSHKFMSTSVGDRVSITCKASQDVNTAVAWYQQKPGQSPKLLIYSASYRYTGVPDRFTGSGSGTDFTFTISSVQAEDLAVYYCQQHYSTPWTFGGGTKLEIKGGGGSGGGGSGGGGSGGGGSQVQLQQSGAELAKPGASVKMSCKASGYAFTTYWMHWVKQRPGQGLEWIGYINPTTGYTDYNQKFKDKATLTADKSSSTAYMQLSSLTSEDSAVYYCARWGLPPFAYWGQGTLVTVSAEPKSSDKTHTCPPCPAPPAAAPSVFLFPPKPKDTLMISRTPEVTCVVVDVSHEDPEVKFNWYVDGVEVHNAKTKPREEQYNSTYRVVSVLTVLHQDWLNGKEYKCAVSNKALPAPIEKTISKAKGQPREPQVYTLPPSRDELTKNQVSLTCLVKGFYPSDIAVEWESNGQPENNYKTTPPVLDSDGSFFLYSKLTVDKSRWQQGNVFSCSVMHEALHNHYTQKSLSLSPGGGGSPSEVQLVESGGGLVKPGGSLRLSCAASGFTFSDYGMAWVRQAPGKGLEWVAFITSLAYIIYYADSVKGRFTISRDNAKNSLYLQMNSLRAEDTAVYYCARNYGSSPYYFDYWGQGTLVTVSSGGGGSGGGGSGGGGSGGGGSDIQMTQSPSSLSASVGDRVTITCRASQDINKFLSWYQQKPGKAPKLLIHYTSSLQPGVPSRFSGSGSGTDFTLTISSLQPEDFATYYCLQYDNLYTFGQGTKLEIK |  | binds
CD4001079 (bispecific antibody) Fc-Knob x CD40_2H7: EPKSSDKTHTCPPCPAPPAAAPSVFLFPPKPKDTLMISRTPEVTCVVVDVSHEDPEVKFNWYVDGVEVHNAKTKPREEQYNSTYRVVSVLTVLHQDWLNGKEYKCAVSNKALPAPIEKTISKAKGQPREPQVYTLPPSRDELTKNQVSLWCLVKGFYPSDIAVEWESNGQPENNYKTTPPVLDSDGSFFLYSKLTVDKSRWQQGNVFSCSVMHEALHNHYTQKSLSLSPGGGGSPSDIVMTQSHKFMSTSVGDRVSITCKASQDVNTAVAWYQQKPGQSPKLLIYSASYRYTGVPDRFTGSGSGTDFTFTISSVQAEDLAVYYCQQHYSTPWTFGGGTKLEIKGGGGSGGGGSGGGGSGGGGSQVQLQQSGAELAKPGASVKMSCKASGYAFTTYWMHWVKQRPGQGLEWIGYINPTTGYTDYNQKFKDKATLTADKSSSTAYMQLSSLTSEDSAVYYCARWGLPPFAYWGQGTLVTVSA PDL_5F9 x Fc-Hole x CD40_2H7: EVQLVESGGGLVKPGGSLRLSCAASGFTFSDYGMAWVRQAPGKGLEWVAFITSLAYIIYYADSVKGRFTISRDNAKNSLYLQMNSLRAEDTAVYYCARNYGSSPYYFDYWGQGTLVTVSSGGGGSGGGGSGGGGSGGGGSDIQMTQSPSSLSASVGDRVTITCRASQDINKFLSWYQQKPGKAPKLLIHYTSSLQPGVPSRFSGSGSGTDFTLTISSLQPEDFATYYCLQYDNLYTFGQGTKLEIKEPKSSDKTHTCPPCPAPPAAAPSVFLFPPKPKDTLMISRTPEVTCVVVDVSHEDPEVKFNWYVDGVEVHNAKTKPREEQYNSTYRVVSVLTVLHQDWLNGKEYKCAVSNKALPAPIEKTISKAKGQPREPQVYTLPPSRDELTKNQVSLSCAVKGFYPSDIAVEWESNGQPENNYKTTPPVLDSDGSFFLVSKLTVDKSRWQQGNVFSCSVMHEALHNRFTQKSLSLSPGGGGSPSDIVMTQSHKFMSTSVGDRVSITCKASQDVNTAVAWYQQKPGQSPKLLIYSASYRYTGVPDRFTGSGSGTDFTFTISSVQAEDLAVYYCQQHYSTPWTFGGGTKLEIKGGGGSGGGGSGGGGSGGGGSQVQLQQSGAELAKPGASVKMSCKASGYAFTTYWMHWVKQRPGQGLEWIGYINPTTGYTDYNQKFKDKATLTADKSSSTAYMQLSSLTSEDSAVYYCARWGLPPFAYWGQGTLVTVSA |  | binds
CD4001070 (bispecific antibody) Fc-Knob x PDL_5F9: EPKSSDKTHTCPPCPAPPAAAPSVFLFPPKPKDTLMISRTPEVTCVVVDVSHEDPEVKFNWYVDGVEVHNAKTKPREEQYNSTYRVVSVLTVLHQDWLNGKEYKCAVSNKALPAPIEKTISKAKGQPREPQVYTLPPSRDELTKNQVSLWCLVKGFYPSDIAVEWESNGQPENNYKTTPPVLDSDGSFFLYSKLTVDKSRWQQGNVFSCSVMHEALHNHYTQKSLSLSPGGGGSPSEVQLVESGGGLVKPGGSLRLSCAASGFTFSDYGMAWVRQAPGKGLEWVAFITSLAYIIYYADSVKGRFTISRDNAKNSLYLQMNSLRAEDTAVYYCARNYGSSPYYFDYWGQGTLVTVSSGGGGSGGGGSGGGGSGGGGSDIQMTQSPSSLSASVGDRVTITCRASQDINKFLSWYQQKPGKAPKLLIHYTSSLQPGVPSRFSGSGSGTDFTLTISSLQPEDFATYYCLQYDNLYTFGQGTKLEIK CD40_2H7 x Fc-Hole x PDL_5F9: DIVMTQSHKFMSTSVGDRVSITCKASQDVNTAVAWYQQKPGQSPKLLIYSASYRYTGVPDRFTGSGSGTDFTFTISSVQAEDLAVYYCQQHYSTPWTFGGGTKLEIKGGGGSGGGGSGGGGSGGGGSQVQLQQSGAELAKPGASVKMSCKASGYAFTTYWMHWVKQRPGQGLEWIGYINPTTGYTDYNQKFKDKATLTADKSSSTAYMQLSSLTSEDSAVYYCARWGLPPFAYWGQGTLVTVSAEPKSSDKTHTCPPCPAPPAAAPSVFLFPPKPKDTLMISRTPEVTCVVVDVSHEDPEVKFNWYVDGVEVHNAKTKPREEQYNSTYRVVSVLTVLHQDWLNGKEYKCAVSNKALPAPIEKTISKAKGQPREPQVYTLPPSRDELTKNQVSLSCAVKGFYPSDIAVEWESNGQPENNYKTTPPVLDSDGSFFLVSKLTVDKSRWQQGNVFSCSVMHEALHNRFTQKSLSLSPGGGGSPSEVQLVESGGGLVKPGGSLRLSCAASGFTFSDYGMAWVRQAPGKGLEWVAFITSLAYIIYYADSVKGRFTISRDNAKNSLYLQMNSLRAEDTAVYYCARNYGSSPYYFDYWGQGTLVTVSSGGGGSGGGGSGGGGSGGGGSDIQMTQSPSSLSASVGDRVTITCRASQDINKFLSWYQQKPGKAPKLLIHYTSSLQPGVPSRFSGSGSGTDFTLTISSLQPEDFATYYCLQYDNLYTFGQGTKLEIK |  | binds
CD4001073 (bispecific antibody) CD40_2H7 x Fc-Knob: DIVMTQSHKFMSTSVGDRVSITCKASQDVNTAVAWYQQKPGQSPKLLIYSASYRYTGVPDRFTGSGSGTDFTFTISSVQAEDLAVYYCQQHYSTPWTFGGGTKLEIKGGGGSGGGGSGGGGSGGGGSQVQLQQSGAELAKPGASVKMSCKASGYAFTTYWMHWVKQRPGQGLEWIGYINPTTGYTDYNQKFKDKATLTADKSSSTAYMQLSSLTSEDSAVYYCARWGLPPFAYWGQGTLVTVSAEPKSSDKTHTCPPCPAPPAAAPSVFLFPPKPKDTLMISRTPEVTCVVVDVSHEDPEVKFNWYVDGVEVHNAKTKPREEQYNSTYRVVSVLTVLHQDWLNGKEYKCAVSNKALPAPIEKTISKAKGQPREPQVYTLPPSRDELTKNQVSLWCLVKGFYPSDIAVEWESNGQPENNYKTTPPVLDSDGSFFLYSKLTVDKSRWQQGNVFSCSVMHEALHNHYTQKSLSLSPG CD40_2H7 x Fc-Hole x PDL_5F9: DIVMTQSHKFMSTSVGDRVSITCKASQDVNTAVAWYQQKPGQSPKLLIYSASYRYTGVPDRFTGSGSGTDFTFTISSVQAEDLAVYYCQQHYSTPWTFGGGTKLEIKGGGGSGGGGSGGGGSGGGGSQVQLQQSGAELAKPGASVKMSCKASGYAFTTYWMHWVKQRPGQGLEWIGYINPTTGYTDYNQKFKDKATLTADKSSSTAYMQLSSLTSEDSAVYYCARWGLPPFAYWGQGTLVTVSAEPKSSDKTHTCPPCPAPPAAAPSVFLFPPKPKDTLMISRTPEVTCVVVDVSHEDPEVKFNWYVDGVEVHNAKTKPREEQYNSTYRVVSVLTVLHQDWLNGKEYKCAVSNKALPAPIEKTISKAKGQPREPQVYTLPPSRDELTKNQVSLSCAVKGFYPSDIAVEWESNGQPENNYKTTPPVLDSDGSFFLVSKLTVDKSRWQQGNVFSCSVMHEALHNRFTQKSLSLSPGGGGSPSEVQLVESGGGLVKPGGSLRLSCAASGFTFSDYGMAWVRQAPGKGLEWVAFITSLAYIIYYADSVKGRFTISRDNAKNSLYLQMNSLRAEDTAVYYCARNYGSSPYYFDYWGQGTLVTVSSGGGGSGGGGSGGGGSGGGGSDIQMTQSPSSLSASVGDRVTITCRASQDINKFLSWYQQKPGKAPKLLIHYTSSLQPGVPSRFSGSGSGTDFTLTISSLQPEDFATYYCLQYDNLYTFGQGTKLEIK |  | binds
CD4001049 (bispecific antibody, also called CD40_1D5 x hFc x PDL_5F9) scFv-Fc-scFv chain: DIVMSQSPSSLAVSVGEKVTMSCKSSQSLLFSVNQKNYLAWYQQKPGQSPKLLIYWASTRESGVPDRFTGSGSGTDFTLTIGSVKAEDLAVYYCQHYYSYPWTFGGGTKLEIKGGGGSGGGGSGGGGSGGGGSQVQLQQSGAELMNPGASVRISCKATGYTFSTSWIEWIKQRPGHGLEWIGEILPGSGSTNYNEKFKGKATFTADTSSNTAYMQLSSLTFEDSAVYYCARGDDGSYVRWYFDVWGAGTTVTVSSEPKSSDKTHTCPPCPAPPAAAPSVFLFPPKPKDTLMISRTPEVTCVVVDVSHEDPEVKFNWYVDGVEVHNAKTKPREEQYNSTYRVVSVLTVLHQDWLNGKEYKCAVSNKALPAPIEKTISKAKGQPREPQVYTLPPSRDELTKNQVSLTCLVKGFYPSDIAVEWESNGQPENNYKTTPPVLDSDGSFFLYSKLTVDKSRWQQGNVFSCSVMHEALHNHYTQKSLSLSPGGGGSPSEVQLVESGGGLVKPGGSLRLSCAASGFTFSDYGMAWVRQAPGKGLEWVAFITSLAYIIYYADSVKGRFTISRDNAKNSLYLQMNSLRAEDTAVYYCARNYGSSPYYFDYWGQGTLVTVSSGGGGSGGGGSGGGGSGGGGSDIQMTQSPSSLSASVGDRVTITCRASQDINKFLSWYQQKPGKAPKLLIHYTSSLQPGVPSRFSGSGSGTDFTLTISSLQPEDFATYYCLQYDNLYTFGQGTKLEIK |  | binds
